Paper PMC4255305

Target: (R)-selective amine : pyruvate transaminase from Nectria haematococca, His-tagged (construct pQR1023) (Nectria haematococca)
Assay: SEC; Superdex 200 HiLoad 16/60 gel filtration, 50 mM Tris/HCl, 0.1 M NaCl pH 7.5, 1.0 mL/min; dimer from the elution volume

stoichiometry N: 2
Substance: (R)-selective amine : pyruvate transaminase from Nectria haematococca, His-tagged (construct pQR1023) (enzyme)
